± gives the uncertainty stated by the source.
Test: amyloid nucleation score (Sup35N fusion, yeast selection) (log enrichment); library NNK2; higher = more nucleation; inactive = no reads after selection
Outline: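 In psi-negative yeast, Sup35N fusions carrying peptides of 20 random codons were induced with 100 μM copper sulfate for 24 hours. The cells then grew 7 days at 30°C on medium lacking adenine and uracil, and plasmid inserts from input and output were Illumina-sequenced, excluding sequences with under 100 input reads. Nucleation score is the DiMSum log enrichment of output over input reads, centred on the mode score of non-aggregating sequences.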

Row | Substance | amyloid nucleation score
1 | FLFFGVGMMCEARDAPMVAF | 0.073 ± 1.1
2 | FLFTQGRLGGGYIVEYLCQL | 3.3 ± 0.15
3 | FLGVFSYASSMIISVKRERS | 4.1 ± 0.095
4 | FLGYIKSLCMYYRRSGMINA | -2.17 ± 0.62
5 | FLKSVSVRVGVILQAHAQEV | 0.375 ± 0.57
6 | FLLSISNRVDMFIFVLHHFT | inactive
7 | FLMFQNGCFLNDILVLRNAR | -0.472 ± 0.26
8 | FLMYFVNR | 2.83 ± 0.055
9 | FLNHCDYCVVKSRLVDMKLN | -0.296 ± 0.76
10 | FLRIVSNVLKWQRA | 2.83 ± 0.069
11 | FLRWRDKWHG | 0.861 ± 0.29
12 | FLSINISISRVLLSDCTS | 3.05 ± 0.12
13 | FLSSIGHLF | 3.89 ± 0.12
14 | FLSWCFW | 0.841 ± 0.42
15 | FLVNVFM | 8.001 ± 0.025
16 | FLVYYINFIAAKCRPKSNLR | inactive
17 | FLYLNAKSVRASIVWYEVKL | 8.232 ± 0.048
18 | FMARRNVAYILEYIIVYRF | -0.735 ± 0.64
19 | FMFLEKRVGNVGRYFHEYIG | inactive
20 | FMMIRV | inactive
21 | FMNANRRVKKGQRVKRWTYS | 0.045 ± 0.79
22 | FMNNMSWLKNFILTWIYKRR | inactive

Row | Substance | amyloid nucleation score
23 | FMQPYTCRSDFDRK | 0.052 ± 0.48
24 | FMRMGTFYSDAVCMLYVSKR | 1.28 ± 0.23
25 | FMVACHCCHTSCEYNFGNTV | 3.96 ± 0.13
26 | FNCTRKNLCFFGIVYSSIIT | -0.86 ± 0.63
27 | FNGLVVFSEHMIRITACDEG | -0.479 ± 1
28 | FNGSGARGSGRMYAILYKMS | 0.422 ± 0.56
29 | FNLMSMIRNRH | -0.548 ± 0.79
30 | FNLTFNHF | 6.041 ± 0.045
31 | FNLTICSLDVPTFL | -0.549 ± 1
32 | FNRFLKYMPSSWLWQGCSVQ | -0.451 ± 0.36
33 | FNRKTKWAYFWLVHGRNR | 5.213 ± 0.052
34 | FNTILVRLPA | 0.455 ± 0.55
35 | FNTYVVNFSRRGDIVMAKR | 6.59 ± 0.085
36 | FNVKWMRW | 5.36 ± 0.066
37 | FNYSPLRFCTNDC | 1.63 ± 0.31
38 | FNYWPYVLNWWELLYQDDAT | 1.11 ± 0.23
39 | FPGWGIDPTYKVKVRWMNRA | 0.566 ± 0.33
40 | FPQWFHFGCNLARSL | -0.613 ± 0.46
41 | FPWYCVGYVRSKRDRKVAWS | 0.04 ± 0.34
42 | FQCLVFLLIGRFGVRHWT | -0.675 ± 1.1
43 | FQDDDDPFFCVFAYFIGFFA | -0.983 ± 1.1
44 | FQDWCHREYYLRLREVSLGG | inactive

Row | Substance | amyloid nucleation score
45 | FQPFVDLLDVVHRELGSLTR | 4.76 ± 0.067
46 | FQSDLMINIK | -0.496 ± 0.56
47 | FREVSSLRCIIFLHITCRNS | 0.647 ± 0.57
48 | FRFRSNSMSFHNADISLLSV | inactive
49 | FRIHIWYGY | 0.244 ± 0.17
50 | FRRLNTATRRCVTSG | -1.13 ± 0.55
51 | FRSGGPLFFHSMGTGFVFVH | -1.5 ± 1.1
52 | FRSHCWL | 0.285 ± 0.41
53 | FRTQAF | 1.16 ± 0.47
54 | FRVFCMHSED | 2.47 ± 0.12
55 | FRVKRL | -1.19 ± 1.1
56 | FRVWSFFLNF | 3.12 ± 0.1
57 | FSAEIRGTQRMLQRLSLYKR | 1.61 ± 0.092
58 | FSCFIIYVGQKTACNSNTAL | 4.57 ± 0.08
59 | FSCWGFMVFRMVGDMLSMKD | -1.58 ± 0.49
60 | FSDFGMSLRISAKVEWIAMG | -1.59 ± 0.78
61 | FSEFIYLCTSLMDARQGMVP | -0.804 ± 1.1
62 | FSEYWVLSELVMVNKGVIWM | -0.865 ± 0.36
63 | FSFSCEGANFDVYTGMWQGS | -0.073 ± 0.45
64 | FSFYECLRGFFSNVDARCQV | 1.51 ± 0.11
65 | FSGFNR | inactive
66 | FSGLSCY | inactive

Row | Substance | amyloid nucleation score
67 | FSGLTDHFRSYLMYSAWTNI | -0.238 ± 0.48
68 | FSHNTEFRVGCGYEFAVGKA | -0.262 ± 0.79
69 | FSIGGVKGEGSKFQGGSQMS | -0.12 ± 1
70 | FSKLLDGLTNRSESPASSVD | 1.69 ± 0.14
71 | FSKLVSIYFWGSGWWFCQWA | -0.532 ± 0.64
72 | FSLFISKMN | -0.474 ± 1
73 | FSLLTTFSLTNGGPAFLMIR | inactive
74 | FSMRCYRVVLKYVSTGW | 0.905 ± 0.35
75 | FSMYSSSVWLDW | inactive
76 | FSPHHEPTSRG | 0.426 ± 0.45
77 | FSPVSPSSGKAHGIGLVLLV | 0.083 ± 0.41
78 | FSRADTVF | 2.79 ± 0.13
79 | FSRSVKRLIVDVLRNKVCI | 0.58 ± 0.54
80 | FSSEGLRIRKIRQGISISLC | -1.21 ± 1.1
81 | FSSLRILTERENFHLVSGVH | -1 ± 0.78
82 | FSVLAMAWSS | -0.226 ± 1.1
83 | FTALSIGLIIVMLRLYRRCF | -0.733 ± 0.64
84 | FTCITIGVFELAQACPIYGG | 6.15 ± 0.071
85 | FTFTRQSAGAHRYDIFVPRT | 0.17 ± 0.41
86 | FTGYRAISASLGTYCLKSCG | -0.245 ± 0.76
